Assay results published in US20060246095A1, “Multiepitope polypeptides for cancer immunotherapy” (HADASIT MEDICAL RESEARCH SERVICES & DEVELOPMENT LTD., priority 2003, published 2006).

Legend:
Type in all cases: cell-based, human
[1] = system: T cell clones specific for different gp100 and MART-1 antigens; assay: Uptake of MEP protein by DC and presentation to T cell clones (IFN-γ secretion, FIG. 2); details: DC incubated with protein 4 hours
Protocol: DC incubated with MEP-Mel protein were able to specifically stimulate T cell clones reactive to different MEP epitopes of gp100 and MART-1. T cell stimulation was estimated by the amount of IFN-γ secreted to the culture medium (pg/ml).
T cell clones tested: GP 100-209a and 209b specific for gp100 209-217 epitope, GP 100-280 specific for gp100 280-288 epitope, GP 100-154 specific for a gp100 epitope not present in MEP (used as control) and MART-1 specific for the epitope 27-35.
Immature DC were incubated with MEP protein for 4 hours. After DC maturation, dendritic cells were incubated in the presence of T cell clones specific for different gp100 and MART-1 antigens. T cell stimulation was estimated by measuring the interferon gamma (IFN-γ) secretion to the medium. […] A MART-1 specific T cell clone was also found to be stimulated.

[2] = system: TIL 1940 (A2 restricted MART-1 epitope 27-35); assay: Recognition assay for peptide presentation by DC (IFN-γ release ELISA), TIL 1940
Protocol: (§1) Dendritic cells were isolated from cytopheresis MNCs of melanoma patients with the HLA haplotypes HIA-A*0201 and HLA-DRβ1*0401. DC were generated from plastic adherent PBMCs cultured in RPMI with 10% human AB-serum, L-glutamine, penicillin-streptomycin, supplemented with GM-CSF 1000 IU/ml and IL-4 1000 IU/ml. By day 6, immature DC were harvested for electroporation.
(§2) 2.5-3×10^6 DC were re-suspended in 100 μl nucleofector solution and added to 5 μg of DNA plasmid in 2-mm electrode gap cuvettes. Transfected DC were immediately plated with CM containing GM/IL4 or let mature using TNFα 100 ng/ml and PGE2 1000 ng/ml. GFP-transfected DCs were collected 16-24 hours later for FACS analysis.
(§3) DC were pulsed with 1 μg/ml of the relevant peptides at 1×10^6 cells/ml. Stimulants were added after 1 hour incubation without washing the peptide.
TIL 1940 which recognizes the A2 restricted MART-1 epitope 27-35.
(§4) T cell clones were co-incubated with DC in flat 96-well plate for 24 hours. DC were plated immediately after their transfection or pulsing in 6 separated plates, in the presence of GM CSF and IL-4. 1×10^5 T cells were added to 1×10^5 pulsed or transfected DC. In the longitudinal study, T cell clones were added to the transfected/pulsed DC at the following time points: T0=immediately, +12=after 12 hours, 24, 36, 48 and 72 hours. Supernatants were collected after overnight incubation. Interferon gamma release assay was performed to evaluate T cell stimulation using the ELISA method, results are presented in pg/ml.
(§5) Lactacystin was added to DC at concentrations of 25 μM and 50 μM, 4 hours post transfection. DC were incubated with lactacystin for 70 minutes and then washed twice.
(§6) Responding T cells were added after washing the lactacystin and co-incubated. Supernatents were collected after 20 hours.
(§7) For recognition assay of DC epitope presentation, 1×10^5 cells from different T cell clones, that were grown from PBMCs of patients, and were restricted to particular melanoma antigen peptides, were co-incubated with 1×10^5 pulsed or transfected DC, in the presence of GM-CSF and IL-4. T cell clones were added to the transfected/pulsed DC at the following time points: T=0 immediately, T=12, 24, 36, 48, 72 hours. Supernatant was collected after overnight incubation and was subjected to interferon gamma release assay, in order to evaluate the specific T cell activity towards the particular peptide presented by the DC cells.
(§8) The results shown in the following tables represent the amount of Interferon-γ (pg/ml) secreted to the culture medium as an index for T cell stimulation.

[3] = system: T cell clone HT 2D9 (A2 restricted gp100 epitope 280-288); assay: Recognition assay with proteasome inhibition (IFN-γ release ELISA), clone HT 2D9; details: transfected DC
Protocol: as §1, §2
HT 2D9 which reacts with A2 restricted gp100 epitope 280-288.
as §4, §5, §6
Control DC were transfected and incubated with responder T cell clones within the same time frame, without lactacystin. […]

[4] = system: T cell clone CK3H6 (A2 restricted gp100 epitope 209-217); assay: Recognition assay for peptide presentation by DC (IFN-γ release ELISA), T cell clone CK3H6; details: CK3H6
Protocol: as §1, §2, §3
CK3H6 which recognizes the A2 restricted gp100 epitope 209-217.
as §4, §5, §6, §7, §8

[5] = system: T cell clone RB-154 (gp100 154-162 peptide); assay: Recognition assay for peptide presentation by DC (IFN-γ release ELISA), clone RB-154; details: T = 0 hours, RB-154
Protocol: as §1, §2, §3
as §4, with “Interferon gamma release assay was performed to evaluate T cell stimulation using the ELISA method, results are presented in pg/ml.” left out

[6] = system: DC with CM (no T cell clone); assay: Recognition assay, CM in place of a T cell clone (IFN-γ background of DC); details: CM instead of T cell clone
Protocol: as §1, §2, §3, §4, §7, §8

[7] = transfected DC, Lactacystin 25 μM
[8] = transfected DC, Lactacystin 50 μM
[9] = transfected or peptide-pulsed DC, Donor 1, T = 12 hours
[10] = transfected or peptide-pulsed DC, Donor 1, T = 48 hours
[11] = transfected or peptide-pulsed DC, Donor 1, T = 72 hours
[12] = transfected or peptide-pulsed DC, Donor 2, T = 12 hours
[13] = transfected or peptide-pulsed DC, Donor 2, T = 24 hours
[14] = transfected or peptide-pulsed DC, Donor 2, T = 36 hours
[15] = transfected or peptide-pulsed DC, Donor 2, T = 48 hours
[16] = transfected or peptide-pulsed DC, Donor 2, T = 72 hours

B1: MEP-mel: melanoma multiepitope polypeptide, SEQ ID NO: 2 or 57; in Tables 2-9 delivered by transfecting DC with pcDNA3-MEP-Mel plasmid (protein)
chain: PGTMGSCRKSYYLEPGPVTVRKSYLIMDQVPFSVRKSYLYMDGTMSQVRKSYLAGIGILTVRKSYYLEPGPVTVALLIMDQVPFSVALLYMDGTMSQVALLLAGIGILTVSSLYLEPGPVTVAAYIMDQVPFSVSSLYMDGTMSQVAAYLAGIGILTV
[1]; MART-1 specific T cell clone
  T cell stimulation (IFN-γ secretion): stimulated
[1]; clone recognizing gp100 epitope 280-288
  T cell stimulation (IFN-γ secretion): also stimulated
[1]; clones 209a and 209b reactive to gp100 epitope 209-217
  T cell stimulation (IFN-γ secretion): highly stimulated
[2]; transfected DC from donor 1, T = 0 hours, TIL 1940
  Interferon-γ secreted to the culture medium: >2000 pg/mL
[2]; transfected DC from donor 2, T = 0 hours, TIL 1940
  Interferon-γ secreted to the culture medium: >2000 pg/mL
[2]; transfected DC, Lactacystin 0, TIL1941
  Interferon-γ secreted to the culture medium: 432 pg/mL
[2]; transfected DC, Lactacystin 25 μM, TIL1941
  Interferon-γ secreted to the culture medium: 62 pg/mL
[2]; transfected DC, Lactacystin 50 μM, TIL1941
  Interferon-γ secreted to the culture medium: 45 pg/mL
[2]; transfected or peptide-pulsed DC, Donor 1, T = 12 hours, TIL 1940
  Interferon-γ secreted to the culture medium: >2000 pg/mL
[2]; transfected or peptide-pulsed DC, Donor 1, T = 24 hours, TIL 1940
  Interferon-γ secreted to the culture medium: >2000 pg/mL
[2]; transfected or peptide-pulsed DC, Donor 1, T = 36 hours, TIL 1940
  Interferon-γ secreted to the culture medium: >2000 pg/mL
[2]; transfected or peptide-pulsed DC, Donor 1, T = 48 hours, TIL 1940
  Interferon-γ secreted to the culture medium: >2000 pg/mL
[2]; transfected or peptide-pulsed DC, Donor 1, T = 72 hours, TIL 1940
  Interferon-γ secreted to the culture medium: >2000 pg/mL
[2]; transfected or peptide-pulsed DC, Donor 2, T = 12 hours, TIL 1940
  Interferon-γ secreted to the culture medium: >2000 pg/mL
[2]; transfected or peptide-pulsed DC, Donor 2, T = 24 hours, TIL 1940
  Interferon-γ secreted to the culture medium: >2000 pg/mL
[2]; transfected or peptide-pulsed DC, Donor 2, T = 36 hours, TIL 1940
  Interferon-γ secreted to the culture medium: >2000 pg/mL
[2]; transfected or peptide-pulsed DC, Donor 2, T = 48 hours, TIL 1940
  Interferon-γ secreted to the culture medium: >2000 pg/mL
[2]; transfected or peptide-pulsed DC, Donor 2, T = 72 hours, TIL 1940
  Interferon-γ secreted to the culture medium: >2000 pg/mL
[3]; Lactacystin 0
  Interferon-γ secreted to the culture medium: 1642 pg/mL
[3]; Lactacystin 25 μM
  Interferon-γ secreted to the culture medium: 244 pg/mL
[3]; Lactacystin 50 μM
  Interferon-γ secreted to the culture medium: 56 pg/mL
[4]; transfected DC from donor 1, T = 0 hours
  Interferon-γ secreted to the culture medium: >2000 pg/mL
[4]; transfected DC from donor 2, T = 0 hours
  Interferon-γ secreted to the culture medium: >2000 pg/mL
[4]; transfected DC, Lactacystin 0
  Interferon-γ secreted to the culture medium: 705 pg/mL
[4]; [7]
  Interferon-γ secreted to the culture medium: 73 pg/mL
[4]; [8]
  Interferon-γ secreted to the culture medium: 36 pg/mL
[4]; [9]
  Interferon-γ secreted to the culture medium: >2000 pg/mL
[4]; transfected or peptide-pulsed DC, Donor 1, T = 24 hours
  Interferon-γ secreted to the culture medium: >2000 pg/mL
[4]; transfected or peptide-pulsed DC, Donor 1, T = 36 hours
  Interferon-γ secreted to the culture medium: >2000 pg/mL
[4]; [10]
  Interferon-γ secreted to the culture medium: >2000 pg/mL
[4]; [11]
  Interferon-γ secreted to the culture medium: 1808 pg/mL
[4]; [12]
  Interferon-γ secreted to the culture medium: >2000 pg/mL
[4]; [13]
  Interferon-γ secreted to the culture medium: >2000 pg/mL
[4]; [14]
  Interferon-γ secreted to the culture medium: >2000 pg/mL
[4]; [15]
  Interferon-γ secreted to the culture medium: >2000 pg/mL
[4]; [16]
  Interferon-γ secreted to the culture medium: 1328 pg/mL
[5]; transfected DC from donor 1
  Interferon-γ secreted to the culture medium: 66 pg/mL
[5]; transfected DC from donor 2
  Interferon-γ secreted to the culture medium: 132 pg/mL
[6]; transfected DC, Donor 1, T = 24 hours
  Interferon-γ secreted to the culture medium: 94 pg/mL
[6]; transfected DC, Donor 1, T = 36 hours
  Interferon-γ secreted to the culture medium: 102 pg/mL
[6]; transfected DC, Lactacystin 0
  Interferon-γ secreted to the culture medium: 5 pg/mL
[6]; [7]
  Interferon-γ secreted to the culture medium: 0 pg/mL
[6]; [8]
  Interferon-γ secreted to the culture medium: 51 pg/mL
[6]; [9]
  Interferon-γ secreted to the culture medium: 120 pg/mL
[6]; [10]
  Interferon-γ secreted to the culture medium: 33 pg/mL
[6]; [11]
  Interferon-γ secreted to the culture medium: 18 pg/mL
[6]; [12]
  Interferon-γ secreted to the culture medium: 248 pg/mL
[6]; [13]
  Interferon-γ secreted to the culture medium: 292 pg/mL
[6]; [14]
  Interferon-γ secreted to the culture medium: 191 pg/mL
[6]; [15]
  Interferon-γ secreted to the culture medium: 260 pg/mL
[6]; [16]
  Interferon-γ secreted to the culture medium: 38 pg/mL
